B1: FAM50A (parent)
chain: HIFPASRWEPYDPEKKWDKYTIR
B2: SASS6 (parent)
chain: QKELQDVGQSLRIKEQEVCKLQEQ

Variants of: B1
Assay: protein stability index of a GFP-peptide fusion (GPS, HEK-293T) (PSI 1-6); higher = more stable
Conditions: c terminus: native
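Further: lentivirally expressed fusions sorted by FACS into six bins by GFP to DsRed ratio, PSI derived from sequencing read proportions per bin multiplied by bin number.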

Protein stability index: each site, then its substitutions
E9: S 2.76, M 1.77, W 2.74, K 1.68
W8: M 3.42
D18: A 1.96
Y20: F 2.67
A5: I 2.18
K19: Y 1.35
P13: W 1.25
P4: W 1.64
W17: P 2.56, C 3.46
T21: E 2.7, W 2.86
D12: H 2.98
I2: R 3.2
K16: C 1.96
I22: F 2.92
S6: I 2.63

Variants of: B2
Assay: as above
Conditions: c terminus: a fixed tail appended

Protein stability index, by site and new letter:
Q24: H 4.95, W 4.84, N 5.39, M 5.05, G 5.12, P 5.58, S 4.43, I 4.7, C 5, K 5.27, T 5.35, F 4.44, V 4.92, A 5.21
V18: D 5.94, A 4.16, N 5.19, P 3.51, Q 5.54, K 5.32, R 5.62, M 5.46, Y 5.03, I 4.75, F 4.5, S 5.35, L 5.25, E 5.95, H 5.11, W 4.28, T 4.74
K2: F 4.02, L 4.97, S 5.43, P 4.2, E 5.48, G 4.65, A 4.58, C 5.29, M 5.1, Y 4.98, I 4.88, T 5.34
I13: D 5.72, M 5.64, Y 4.95, P 5.38, H 4.64, K 5.29, E 5.34, C 3.3, R 5.7, N 5.31, W 4.57, V 5.44, L 5.57, A 4.69
E15: T 4.56, R 4.21, P 4.66, F 3.24, Q 4.66, D 5, N 3.15, W 2.06, L 4.15, I 2.8, H 4.49, G 5.1, K 3.7, S 4.85, A 5.01
G8: W 3.84, M 4.98, E 5.38, F 4.07, P 4.75, V 4.69, R 5.48, K 5.2, T 5.13, Y 4.18, I 4
L4: P 5.34, G 5.59, F 5.11, Q 4.24, R 4.96, V 5.28, D 5.57, T 5.23, A 5.25, N 5.1, K 4.87, M 3.98, W 4.82, C 4.06
L11: M 5.6, N 5.77, P 5.37, W 5.11, C 5.09, F 5.26, Q 5.54, I 5.39, E 5.84, K 5.12, H 5.36, S 5.47, G 5.88, V 5.39, A 5.25
K20: G 5.36, H 4.49, Y 4.66, T 5.09, I 5.15, F 4.31, S 5.55, V 5.26, C 5.11, L 5.02, M 5.24
L21: F 5.14, E 5.78, A 5.02, P 5.4, D 5.84, M 5.03, G 5.9, S 5.27, I 5.43, C 5.73, K 5.81, T 5.68, W 4.92, Q 5.42, N 5.68, Y 5.38
Q22: T 5.06, K 5.25, L 4.44, R 5.07, P 5.27, C 4.34, I 4.69, M 4.88, E 5.4, V 4.4, H 4.79
V7: M 3.42, W 4.64, C 3.36, K 5.16, Q 5.82, F 4.73, Y 5.18, H 4.72, G 5.41, R 5.39
C19: E 5.78, T 5.31, F 5.35, V 5.25, I 4.35, K 4.88, M 5.34, H 5.61, P 4.9, D 5.56, Y 5.19, S 5.53
E3: G 4.68, I 4.37, H 4.39, W 3.84, S 5.1, N 4.88, F 3.29, D 5.34, M 4.02, V 4.52, P 3.71, L 4.92, C 4.83, K 4.63, T 5.08
Q5: W 4.79, T 5.41, I 5.02, C 5.7, S 5.16, G 5.69, F 4.27, Y 4.32, R 4.41, M 5.16, D 5.37, N 5.3, V 5.13, H 4.91
K14: F 4.38, T 5.75, P 4.73, R 5.19, E 5.49, A 5.04, N 4.6, G 5.46, Y 4.68, V 4.94, C 5.54, I 4.43, Q 4.9, H 4.78
Q1: V 4.88, T 4.55, K 5.22, H 5.51, M 4.5, S 4.63, Y 4.78, F 4.25, P 4.91, E 5.94, C 4.99
S10: W 2.66, I 3.83, F 4.91, K 5.1, C 4.12, E 5.72, V 3.9, G 4.74, Y 4.32, L 5, M 5.33, Q 5.31, A 5, T 5.48
E17: P 4.55, I 4.28, K 5.25, A 4.66, C 4.56, G 4.96, H 5.02, Q 4.62, S 4.97, Y 4.22, L 4.77, T 4.95
R12: Q 5.75, S 5.34, C 4.81, F 5.02, W 4.84, T 3.75, G 5.6, A 5.34, P 5.39, K 5.55, H 5.41, Y 5.28
D6: P 5.26, S 4.91, L 4.14, H 4.62, A 5.17, E 5.05, M 5.02, N 4.9, Y 4.58, T 4.74, K 5.23
Q16: D 5.43, G 5.83, K 5.48, N 5.13, M 4.96, A 5.12, L 4.71, W 4.66, I 4.84, V 5.21, E 5.63, C 4.99, Y 4.68
E23: K 4.89, R 4.76, S 4.82, M 4.24, I 4.4, F 4.52, P 4.49, Q 4.71, L 4.69, D 5.27, T 4.99, N 4.5
Q9: Y 4.87, T 5.23, D 5.71, F 4.13, C 4.76, S 4.47, I 4.97, R 5.1, P 5.56, E 4.49, K 5.3, H 5.05, L 4.84, G 5.02
